Data published in patent publication EP4700044A1, “PROTEIN ANALOGUE AND USE THEREOF” (Shanghai Duomirui Biotechnology., Ltd., priority 2023, dated 2024).
Where a chain is given by its changes, count along the chain named.

B1: Compound 5.7: FGF21D46C mutant (SEQ NO: 7) modified by the albumin-binding agent of Example 2.2 (conjugate)
chain: HPIPDSSPLLQFGGQVRQRYLYTDDAQQTEAHLEIREDGTVGGAACQSPESLLQLKALKPGVIQILGVKTSRFLCQRPDGALYGSLHFDPEACSFRERLLEDGYNVYQSEAHGLPLHLPGNKSPHRDPAPRGPARFLPLPGLPPAPPEPPGILAPQPPDVGSSDPLSMVGGSQGRSPSYES
modifications: albumin-binding agent conjugated
B2: Compound 5.15: FGF21H125C mutant (SEQ NO: 9) modified by the albumin-binding agent of Example 2.4 (conjugate)
chain: B1 chain with C46D, H125C
modifications: albumin-binding agent of Example 2.4
B3: Compound 12.2: Fatty acid-modified PAS-FGF21 dimer: PAS30FGF21 (SEQ ID NO: 14) modified by the side chain of Example 8.5 (conjugate)
chain: SPCASPAAPAPASPAAPAPSAPAAASAAAPAHPIPDSSPLLQFGGQVRQRYLYTDDAQQTEAHLEIREDGTVGGAADQSPESLLQLKALKPGVIQILGVKTSRFLCQRPDGALYGSLHFDPEACSFRERLLEDGYNVYQSEAHGLPLHLPGNKSPHRDPAPRGPARFLPLPGLPPAPPEPPGILAPQPPDVGSSDPLSMVGGSQGRSPSYES
modifications: dimer; fatty acid side chain of Example 8.5
B4: Compound 12.4: Fatty acid-modified PAS-FGF21 dimer: PAS100FGF21 (SEQ ID NO: 16) modified by the side chain of Example 8.5 (conjugate)
chain: SPCASPAAPAPASPAAPAPSAPAAASAAAPAAASAAASAPSAASAAASPAAPSAPPAAASPAAPSAPPAAASPAAPAPASPAASAPSAPAAASPAAPAPASHPIPDSSPLLQFGGQVRQRYLYTDDAQQTEAHLEIREDGTVGGAADQSPESLLQLKALKPGVIQILGVKTSRFLCQRPDGALYGSLHFDPEACSFRERLLEDGYNVYQSEAHGLPLHLPGNKSPHRDPAPRGPARFLPLPGLPPAPPEPPGILAPQPPDVGSSDPLSMVGGSQGRSPSYES
modifications: dimer; fatty acid side chain of Example 8.5
B5: Compound 12.5: Fatty acid-modified PAS-FGF21 dimer: PAS200FGF21 (SEQ ID NO: 17) modified by the side chain of Example 8.5 (conjugate)
chain: SPCASPAAPAPASPAAPAPSAPAAASAAAPAAASAAASAPSAASAAASPAAPSAPPAAASPAAPSAPPAAASPAAPAPASPAASAPSAPAAASPAAPAPASPAAPAPSAPAAASAAAPAAASAAASAPSASAAASAAAPAAASAAASAPSAASSAASPAAPSAPPAAASPAAPSAPPAAASPAAPAPASPAAPAPSAPAAAHPIPDSSPLLQFGGQVRQRYLYTDDAQQTEAHLEIREDGTVGGAADQSPESLLQLKALKPGVIQILGVKTSRFLCQRPDGALYGSLHFDPEACSFRERLLEDGYNVYQSEAHGLPLHLPGNKSPHRDPAPRGPARFLPLPGLPPAPPEPPGILAPQPPDVGSSDPLSMVGGSQGRSPSYES
modifications: dimer; fatty acid side chain of Example 8.5
B6: Compound 12.1: Fatty acid-modified PAS-FGF21 dimer: PAS15FGF21 (SEQ ID NO: 13) modified by the side chain of Example 8.5 (conjugate)
chain: SPCASPAAPAPASPAAHPIPDSSPLLQFGGQVRQRYLYTDDAQQTEAHLEIREDGTVGGAADQSPESLLQLKALKPGVIQILGVKTSRFLCQRPDGALYGSLHFDPEACSFRERLLEDGYNVYQSEAHGLPLHLPGNKSPHRDPAPRGPARFLPLPGLPPAPPEPPGILAPQPPDVGSSDPLSMVGGSQGRSPSYES
modifications: dimer; fatty acid side chain of Example 8.5
B7: Compound 12.3: Fatty acid-modified PAS-FGF21 dimer: PAS50FGF21 (SEQ ID NO: 15) modified by the side chain of Example 8.5 (conjugate)
chain: SPCASPAAPAPASPAAPAPSAPAAASAAAPAAASAAASAPSAASAAASPAAHPIPDSSPLLQFGGQVRQRYLYTDDAQQTEAHLEIREDGTVGGAADQSPESLLQLKALKPGVIQILGVKTSRFLCQRPDGALYGSLHFDPEACSFRERLLEDGYNVYQSEAHGLPLHLPGNKSPHRDPAPRGPARFLPLPGLPPAPPEPPGILAPQPPDVGSSDPLSMVGGSQGRSPSYES
modifications: dimer; fatty acid side chain of Example 8.5
B8: Compound 12.6: Fatty acid-modified PAS-FGF21 dimer: PAS200FGF21 (SEQ ID NO: 17) as printed, modified by the side chain of Example 8.6 (conjugate)
chain: B5 chain
modifications: dimer; fatty acid side chain of Example 8.6

Target: T1, FGFR1c and the cofactor β-Klotho (Homo sapiens, UniProt P11362+Q86Z14)
T1 construct: host or cells: iLite FGF21 assay ready cells (genetically engineered reporter gene cell line)
Experiment: dual-luciferase reporter gene assay in iLite FGF21 assay ready cells
Type: cell-based
Conditions: Example 6, four-parameter fitting
Description: iLite FGF21 assay ready cells (purchased from SAVR) is a genetically engineered reporter gene cell line that responds to signals downstream to FGF21 agonism through the expression of firefly luciferase. The receptor FGFR1c and the cofactor β-Klotho were co-overexpressed on the surface of iLite FGF21 assay ready cells and have undergone genetic optimization to enhance sensitivity, such that FGF21 will cause an increase in luciferase expression in a dose-response manner. The luciferase activity detection kit was purchased from Promega (catalog number #E2980).
iLite FGF21 assay ready cells were cultured adherently in basal medium (DMEM Gluta Max, purchased from Gibco) containing 10% fetal bovine serum (FBS, purchased from Gibco) and 1% penicillin/streptomycin (purchased from Gibco). For the activity determination experiment, […] cells per well and test samples such as FGF21 mutant proteins and FGF21 conjugate molecules modified with albumin-binding agent were added to all-white 96-well culture plates (purchased from Corning), and the chemiluminescence values were detected in a microplate reader according to the instructions of the luciferase activity detection kit. Finally, the half-maximal effective concentration (EC50) values of the tested samples were obtained by means of four-parameter fitting.

T1 sequence (P11362 22-822): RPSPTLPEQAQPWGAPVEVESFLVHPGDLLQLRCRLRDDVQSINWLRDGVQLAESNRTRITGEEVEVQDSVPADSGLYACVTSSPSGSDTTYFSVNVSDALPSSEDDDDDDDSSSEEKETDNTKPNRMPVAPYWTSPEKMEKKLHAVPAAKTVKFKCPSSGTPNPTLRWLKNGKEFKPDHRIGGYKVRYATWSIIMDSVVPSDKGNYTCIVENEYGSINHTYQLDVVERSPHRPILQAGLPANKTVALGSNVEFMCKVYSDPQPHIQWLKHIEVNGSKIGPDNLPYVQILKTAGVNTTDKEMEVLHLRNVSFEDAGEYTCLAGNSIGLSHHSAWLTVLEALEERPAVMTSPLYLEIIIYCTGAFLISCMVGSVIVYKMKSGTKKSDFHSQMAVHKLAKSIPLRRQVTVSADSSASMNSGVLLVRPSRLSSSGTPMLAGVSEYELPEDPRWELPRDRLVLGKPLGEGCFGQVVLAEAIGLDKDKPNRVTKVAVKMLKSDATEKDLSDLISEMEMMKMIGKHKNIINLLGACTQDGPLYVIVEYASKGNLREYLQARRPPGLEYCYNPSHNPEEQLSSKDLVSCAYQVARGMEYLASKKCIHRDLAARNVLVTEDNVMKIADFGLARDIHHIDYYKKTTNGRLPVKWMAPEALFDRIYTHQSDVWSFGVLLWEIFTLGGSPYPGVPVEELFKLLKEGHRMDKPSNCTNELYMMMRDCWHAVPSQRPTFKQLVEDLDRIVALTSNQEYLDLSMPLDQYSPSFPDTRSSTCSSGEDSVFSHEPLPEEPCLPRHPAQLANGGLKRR
T1 sequence (Q86Z14 whole entry): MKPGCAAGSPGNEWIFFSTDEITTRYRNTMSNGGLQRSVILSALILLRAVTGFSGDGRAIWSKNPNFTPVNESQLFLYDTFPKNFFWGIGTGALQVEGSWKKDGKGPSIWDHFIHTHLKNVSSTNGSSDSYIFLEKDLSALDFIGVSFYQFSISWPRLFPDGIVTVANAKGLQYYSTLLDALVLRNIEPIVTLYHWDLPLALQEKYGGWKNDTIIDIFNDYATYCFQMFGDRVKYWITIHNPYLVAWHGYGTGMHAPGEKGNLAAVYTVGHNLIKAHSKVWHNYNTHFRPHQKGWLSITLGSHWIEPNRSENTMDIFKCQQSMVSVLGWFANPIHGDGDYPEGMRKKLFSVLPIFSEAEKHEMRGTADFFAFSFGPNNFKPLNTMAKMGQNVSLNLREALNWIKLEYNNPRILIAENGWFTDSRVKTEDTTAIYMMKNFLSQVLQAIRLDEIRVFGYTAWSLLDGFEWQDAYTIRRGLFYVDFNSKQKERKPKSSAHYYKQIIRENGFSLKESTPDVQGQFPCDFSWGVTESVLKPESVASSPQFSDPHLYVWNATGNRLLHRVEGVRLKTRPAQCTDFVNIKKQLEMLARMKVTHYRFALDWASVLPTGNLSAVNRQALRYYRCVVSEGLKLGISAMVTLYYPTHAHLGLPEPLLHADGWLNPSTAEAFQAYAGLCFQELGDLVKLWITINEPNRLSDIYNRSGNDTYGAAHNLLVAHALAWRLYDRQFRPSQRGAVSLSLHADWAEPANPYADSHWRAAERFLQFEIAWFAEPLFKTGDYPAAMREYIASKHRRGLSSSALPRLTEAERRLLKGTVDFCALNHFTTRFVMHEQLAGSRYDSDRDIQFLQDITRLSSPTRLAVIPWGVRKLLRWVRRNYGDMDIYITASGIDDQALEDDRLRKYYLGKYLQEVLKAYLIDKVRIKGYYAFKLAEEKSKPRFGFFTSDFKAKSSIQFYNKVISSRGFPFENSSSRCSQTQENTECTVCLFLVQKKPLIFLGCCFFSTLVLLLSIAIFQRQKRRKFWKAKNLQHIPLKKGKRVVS

Row | Molecule | EC50 [nM]
1 | B1 | 1.06
2 | B2 | 0.47

Same assay, conditions: Example 13, four-parameter fitting

Row | Molecule | EC50 [nM]
3 | B3 | 0.13
4 | B4 | 0.11
5 | B5 | 0.09
6 | B6 | 0.09
7 | B7 | 0.11

System: not listed separately
Experiment: pharmacokinetic test in mice
Type: in vivo
Conditions: 1 mg/kg, subcutaneous injection, plasma, human FGF21 ELISA
Description: (§1) The pharmacokinetic properties of protein analogs can be tested in mice or minpigs.
(§2) Mice experiment (N = 3): The injection dose was 1 mg/kg, and the injection method was subcutaneous injection. The blood-collection time points for plasma samples were 0.08, 0.25, 0.5, 1, 2, 4, 6, 8, 12, 24, 48, and 72 hours. The blood was collected into EDTA·2K-coated test tubes (which must be temporarily stored on ice) and centrifuged at 1200 × g for 10 minutes at 4°C. Subsequently, the plasma was transferred to Micronic tubes and stored at -20°C. The human FGF21 detection ELISA kit (RD191108200R) produced by Biovendor was used to monitor the blood drug concentration.

Row | Molecule | half-life [h]
8 | B1 | 15.9
9 | B2 | 14.1

System: not listed separately
Experiment: pharmacokinetic test in minipigs
Type: in vivo
Conditions: 1 mg/kg, subcutaneous injection, plasma, human FGF21 ELISA
Description: as §1
as §2, with “Minipig” for “Mice”, “0.083,” for “0.08,”, “72, 96, 120, 144, 168, 192, 216, 240, 264, 288 h.” for “and 72 hours.”, “(CAT: RD191108200R)” for “(RD191108200R)”

Row | Molecule | half-life [h]
10 | B3 | 65.9 ± 3.8
11 | B4 | 75.4 ± 9.4
12 | B8 | 61.3 ± 1.1

System: high-fat diet-induced db/db mice
Experiment: pharmacodynamic test in db/db mice induced by high-fat diet (NASH model)
Type: in vivo
Conditions: 5 nmol/kg, subcutaneous injection once every three days, 6 weeks; liver sections, hematoxylin-eosin staining
Description: Establishment of a db/db mouse model induced by high-fat diet: Male db/db mice, 8 weeks old, were adaptively fed with a standard diet for 2-3 days, after which all feed was replaced with 60% high-fat feed for rearing. After 3 weeks of high-fat feed feeding, the NASH model could be obtained. Administration: N = 6, subcutaneous injection of Vehicle and protein analogues (5 or 20 nmol/kg) was given once every three days, with an administration period of 6 weeks.
At the end of the administration, liver tissue sections were taken for hematoxylin-eosin staining to detect the effect of protein analogs on the non-alcoholic fatty liver disease activity score (NAS score) in high-fat diet-induced db/db mice.

Row | Molecule | NAS score
13 | B3 | 4.33 ± 1.03
14 | B6 | 3.83 ± 0.98
15 | B7 | 4.33 ± 1.37

Same assay, conditions: 20 nmol/kg, subcutaneous injection once every three days, 6 weeks; liver sections, hematoxylin-eosin staining

Row | Molecule | NAS score
16 | B3 | 3.40 ± 1.14
17 | B6 | 3.33 ± 0.82
18 | B7 | 3.00 ± 0.89
